Molecular target: the molecule itself
Test: MALDI-ToF MS

B1: Superoxide dismutase 1 (SOD1) from bovine erythrocytes (enzyme)
chain: not shown
B1: binds.

Source: PMC3570234 (Molecular pharmaceutics, 2012)
